# Experimental data taken from publication PMC12186490, “Environmental pH controls antimicrobial production by human probiotic Streptococcus salivarius” (Journal of Bacteriology, 2025).
# Experiments:
# [1] = target: NRPS regulator NrpR (amino acids 1-285), recombinant, untagged (Streptococcus salivarius K12); assay: SEC; Superdex 200 10/300 GL; 20 mM Tris-HCl pH 8.5, 200 mM NaCl, 1 mM TCEP, 5% glycerol; 1 mg/mL NrpR, room temperature; mass standards
# [2] = target: fluorescein-labeled synthetic NRPS-inducing peptide (NIP) (Streptococcus salivarius K12); assay: fluorescence polarisation; 1 nM fluorescein-labeled NIP titrated with purified NrpR; 20 mM potassium phosphate, 75 mM NaCl, 2% DMSO, 1 mM EDTA, 0.0005% Tween 20; binding buffer adjusted to near neutral pH (pH 6.5 to 7.5) or pH 5.0
# [3] = target: NRPS regulator NrpR (amino acids 1-285), recombinant, untagged (Streptococcus salivarius K12)
stoichiometry N [1],fold decrease in affinity against pH 5.5 [2] [fold],"sarD transcript level (qRT-PCR) in the nip* mutant with 100 nM synthetic NIP at pH 5.5 or 6.0, against the unsupplemented mutant; no significant induction at pH 6.5-7.5 or pH 5.0 [3] [fold]",Substance
2,> 2,,"NRPS regulator NrpR (amino acids 1-285), recombinant, untagged (receptor)"
,,> 75,fluorescein-labeled synthetic NRPS-inducing peptide (NIP)
